Data reported in patent US8753698B2, “Anti-hypertensive functional food products” (Globus Egg Sciences B.V., priority 2004, dated 2014).

Target: Angiotensin-I Converting Enzyme (ACE) (Homo sapiens, UniProt P12821)
Test: Determination of ACE inhibitory activity of hydrolysates in a microtiter plate (Hip-His-Leu substrate)
Format: biochemical
Details: no digestion simulation, in %
Protocol: ACE inhibitory activity can be measured in vitro using a spectrophotometry based assay. The assay is based on the liberation of hippuric acid from Hip-His-Leu substrate catalyzed by ACE.
Calculation of Ace Inhibition:
[formula] 2.4 Further (Optimized) Hydrolysis of Ovomucin with Alcalase Protocol for the DH Determination by TNBS Method Solutions: • 0.21 M Sodium phosphate buffer pH8.2 • 0.21 M NaH2PO4.H2O (25 ml solution) • 0.21 M Na2HPO4.2H2O (500 ml solution) • mix solutions to pH 8.2 • 0.05% TNBS • Dilute TNBS stock (5% solution) to 0.05% in MQ cover reagent tube with aluminium foil and store in dark place • 1% SDS solution • Leucine standard (stock 3 mM Leucine) • Dissolve Leucine in 1% SDS solution. Dilute the stock solution 20×, 10×, 4× en 2× with 1% SDS for analysis • Blank • Dilute non-hydrolysed sample in 1% SDS to a protein concentration of 0.5 mg/ml • Samples • Dilute hydrolysed protein in 1% SDS to a concentration of 0.5 mg/ml in duplo Analysis: • Pipet 15 μl sample (Leucine standard or sample) in microwell. Measure each dilution in twofold in plate (Costar, non-binding plate) • Add 45 μl 0.21 M sodium phosphate buffer pH 8.2 • Add 45 μl 0.05% TNBS. Cover plate with aluminium foil. Incubate plate for 60 minutes in a 50° C. stove. • After incubation add 90 μl 0.1 N HCl • Measure absorption at 340 nm (microplate reader) Calculation of degree of hydrolysis (DH): • Make calibration line of Leucine standard. This calibration line is used to convert absorption values of samples to NH2-equivalents.

Chain of Angiotensin-I Converting Enzyme (ACE) (P12821 30-1306, species assumed): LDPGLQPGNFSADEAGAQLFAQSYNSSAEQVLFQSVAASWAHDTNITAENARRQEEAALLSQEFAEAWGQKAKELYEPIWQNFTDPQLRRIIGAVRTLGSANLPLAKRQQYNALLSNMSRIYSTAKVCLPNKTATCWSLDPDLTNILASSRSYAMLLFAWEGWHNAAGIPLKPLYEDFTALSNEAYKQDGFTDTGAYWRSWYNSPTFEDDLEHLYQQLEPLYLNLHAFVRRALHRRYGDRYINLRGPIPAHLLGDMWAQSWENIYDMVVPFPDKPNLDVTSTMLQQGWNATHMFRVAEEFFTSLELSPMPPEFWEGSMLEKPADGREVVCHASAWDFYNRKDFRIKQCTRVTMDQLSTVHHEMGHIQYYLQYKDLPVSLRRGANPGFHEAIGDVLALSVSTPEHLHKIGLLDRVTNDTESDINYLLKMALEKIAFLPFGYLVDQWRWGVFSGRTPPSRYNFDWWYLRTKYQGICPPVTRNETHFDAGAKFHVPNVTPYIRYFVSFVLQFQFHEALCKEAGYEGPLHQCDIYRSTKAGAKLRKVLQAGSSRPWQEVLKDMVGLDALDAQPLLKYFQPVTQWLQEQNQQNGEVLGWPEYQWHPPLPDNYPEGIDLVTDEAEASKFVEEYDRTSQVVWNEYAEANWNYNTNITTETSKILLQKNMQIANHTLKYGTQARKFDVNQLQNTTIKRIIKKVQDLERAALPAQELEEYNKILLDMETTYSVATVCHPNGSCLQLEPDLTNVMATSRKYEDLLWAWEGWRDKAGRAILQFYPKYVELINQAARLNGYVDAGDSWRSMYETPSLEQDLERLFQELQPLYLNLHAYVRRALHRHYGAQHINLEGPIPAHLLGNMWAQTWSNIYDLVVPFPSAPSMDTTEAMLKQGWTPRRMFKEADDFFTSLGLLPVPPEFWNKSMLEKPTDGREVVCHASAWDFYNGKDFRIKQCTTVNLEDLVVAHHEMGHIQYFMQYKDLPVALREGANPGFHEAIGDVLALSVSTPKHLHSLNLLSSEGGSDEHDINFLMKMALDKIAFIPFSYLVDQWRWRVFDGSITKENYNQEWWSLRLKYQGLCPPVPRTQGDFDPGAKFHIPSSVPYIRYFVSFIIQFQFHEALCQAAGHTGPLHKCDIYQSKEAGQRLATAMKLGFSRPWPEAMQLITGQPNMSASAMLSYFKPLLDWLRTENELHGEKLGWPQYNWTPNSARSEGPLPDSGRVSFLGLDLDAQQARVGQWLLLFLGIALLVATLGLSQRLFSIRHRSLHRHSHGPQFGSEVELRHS

- ACE inhibition (conc. 0.019 mg/ml): 0.7
- ACE inhibition (conc. 0.056 mg/ml): −4.1
- ACE inhibition (conc. 0.167 mg/ml): 0.7
- ACE inhibition (conc. 0.500 mg/ml): −0.3
B1: OT-UM: ovotransferrin, not pre-hydrolysed, nor in vitro digested (protein)
chain: APPKSVIRWCTISSPEEKKCNNLRDLTQQERISLTCVQKATYLDCIKAIANNEADAISLDGGQAFEAGLAPYKLKPIAAEVYEHTEGSTTSYYAVAVVKKGTEFTVNDLQGKTSCHTGLGRSAGWNIPIGTLLHRGAIEWEGIESGSVEQAVAKFFSASCVPGATIEQKLCRQCKGDPKTKCARNAPYSGYSGAFHCLKDGKGDVAFVKHTTVNENAPDQKDEYELLCLDGSRQPVDNYKTCNWARVAAHAVVARDDNKVEDIWSFLSKAQSDFGVDTKSDFHLFGPPGKKDPVLKDLLFKDSAIMLKRVPSLMDSQLYLGFEYYSAIQSMRKDQLTPSPRENRIQWCAVGKDEKSKCDRWSVVSNGDVECTVVDETKDCIIKIMKGEADAVALDGGLVYTAGVCGLVPVMAERYDDESQCSKTDERPASYFAVAVARKDSNVNWNNLKGKKSCHTAVGRTAGWVIPMGLIHNRTGTCNFDEYFSEGCAPGSPPNSRLCQLCQGSGGIPPEKCVASSHEKYFGYTGALRCLVEKGDVAFIQHSTVEENTGGKNKADWAKNLQMDDFELLCTDGRRANVMDYRECNLAEVPTHAVVVRPEKANKIRDLLERQEKRFGVNGSEKSKFMMFESQNKDLLFKDLTKCLFKVREGTTYKEFLGDKFYTVISSLKTCNPSDILQMCSFLEGK
